Assay results published in publication PMC6386705.
Like-named read-outs stand apart in the source and are kept apart here.

Legend:
HuR RRM3 [1] = target: T1, HuR RRM3 (human, UniProt Q15717 241-326); assay: ITC
HuR RRM3 W261E [2] = target: T2, HuR RRM3 W261E (human, UniProt Q15717 241-326, W261E); assay: NMR
HuR RRM12 = HuR RRM12 (human, UniProt Q15717 2-189); assay: ITC
HuR RRM3 FY = HuR RRM3 FY (human, UniProt Q15717 241-326, F247A;Y249A); assay: NMR
HuR RRM3 W261E [3] = target: T2, HuR RRM3 W261E; assay: ITC
HuR RRM3 [4] = target: T1, HuR RRM3; assay: ITC; remark: listed apart in the source
HuR RRM3 [5] = target: T1, HuR RRM3; assay: NMR
HuR RRM3 [6] = target: T1, HuR RRM3; assay: ITC; remark: listed apart in the source
HuR RRM3 [7] = target: T1, HuR RRM3; assay: NMR; remark: listed apart in the source
HuR RRM3 [8] = target: T1, HuR RRM3; assay: NMR; remark: listed apart in the source
HuR RRM3 [9] = target: T1, HuR RRM3; assay: ITC; remark: listed apart in the source
HuR RRM3 [10] = target: T1, HuR RRM3; assay: ITC; remark: listed apart in the source

T1 sequence (Q15717 241-326): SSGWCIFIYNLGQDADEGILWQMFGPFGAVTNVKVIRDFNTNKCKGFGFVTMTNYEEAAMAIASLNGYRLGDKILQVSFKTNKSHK
T2 sequence (Q15717 241-326 W261E): as the sequence (Q15717 241-326) above, with W21E counted along it
Chain of HuR RRM12 (Q15717 2-189): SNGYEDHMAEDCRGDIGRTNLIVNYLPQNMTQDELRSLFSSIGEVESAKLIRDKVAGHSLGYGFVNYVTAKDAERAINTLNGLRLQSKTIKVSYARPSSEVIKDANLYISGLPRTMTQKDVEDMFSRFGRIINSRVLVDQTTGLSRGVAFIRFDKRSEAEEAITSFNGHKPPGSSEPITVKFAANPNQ
Chain of HuR RRM3 FY (Q15717 241-326 F247A/Y249A): as the sequence (Q15717 241-326) above, with F7A, Y9A counted along it

B1: c-fos ARE 11-mer (ssRNA)
RNA: AUUUUUAUUUU
Kd (HuR RRM3 [1]): 0.65 µM | binding result (HuR RRM3 W261E [2]): binds | Kd (HuR RRM12): 0.14 µM | binding result (HuR RRM3 FY): no binding

B2: UUUUUU (ssRNA)
RNA: UUUUUU
binding result (HuR RRM3 W261E [3]): binds | Kd (HuR RRM3 [4]): 3.58 ± 0.21 µM

B3: UUUUU (ssRNA)
RNA: UUUUU
binding result (HuR RRM3 [5]): binds

B4: AUUUUU (ssRNA)
RNA: AUUUUU
Kd (HuR RRM3 [6]): 4.03 ± 0.25 µM

B5: AUUUU (ssRNA)
RNA: AUUUU
binding result (HuR RRM3 [7]): binds

B6: UUAUU (ssRNA)
RNA: UUAUU
binding result (HuR RRM3 [7]): binds

B7: AUUAU (ssRNA)
RNA: AUUAU
binding result (HuR RRM3 [8]): binds

B8: UUUUA (ssRNA)
RNA: UUUUA
binding result (HuR RRM3 [7]): binds

B9: UUUAUU (ssRNA)
RNA: UUUAUU
Kd (HuR RRM3 [9]): 5.6 ± 0.4 µM

B10: AUUAUU (ssRNA)
RNA: AUUAUU
Kd (HuR RRM3 [10]): 5.75 ± 0.27 µM
